IntAct's records for PubMed 25416956

B1: Lipopolysaccharide-induced tumor necrosis factor-alpha factor (Homo sapiens), Q99732 (parent)
chain: MSVPGPYQAATGPSSAPSAPPSYEETVAVNSYYPTPPAPMPGPTTGLVTGPDGKGMNPPSYYTQPAPIPNNNPITVQTVYVQHPITFLDRPIQMCCPSCNKMIVSQLSYNAGALTWLSCGSLCLLGCIAGCCFIPFCVDALQDVDHYCPNCRALLGTYKRL

Variants of: B1
Details: with hgs_human HGS

effect of a mutation on the interaction | Variant
disrupting interaction | A111G

Variants of: B1
Details: with stam2_human STAM2, O75886

effect of a mutation on the interaction | Variant
disrupting interaction | A111G

Variants of: B1
Details: with reep6_human REEP6, Q96HR9
Sequence of reep6_human REEP6, Q96HR9 (Q96HR9 whole entry): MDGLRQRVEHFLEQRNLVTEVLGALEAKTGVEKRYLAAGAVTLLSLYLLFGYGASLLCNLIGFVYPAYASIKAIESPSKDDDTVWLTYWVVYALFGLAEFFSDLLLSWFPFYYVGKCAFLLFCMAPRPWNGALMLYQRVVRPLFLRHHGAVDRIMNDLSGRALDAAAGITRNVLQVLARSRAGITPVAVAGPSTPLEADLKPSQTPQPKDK

effect of a mutation on the interaction | Variant
disrupting interaction | A111G

Variants of: B1
Details: with UBQLN1, Q9UMX0-2
Sequence of UBQLN1, Q9UMX0-2 (Q9UMX0 other isoform, or with tags, fused parts or gaps): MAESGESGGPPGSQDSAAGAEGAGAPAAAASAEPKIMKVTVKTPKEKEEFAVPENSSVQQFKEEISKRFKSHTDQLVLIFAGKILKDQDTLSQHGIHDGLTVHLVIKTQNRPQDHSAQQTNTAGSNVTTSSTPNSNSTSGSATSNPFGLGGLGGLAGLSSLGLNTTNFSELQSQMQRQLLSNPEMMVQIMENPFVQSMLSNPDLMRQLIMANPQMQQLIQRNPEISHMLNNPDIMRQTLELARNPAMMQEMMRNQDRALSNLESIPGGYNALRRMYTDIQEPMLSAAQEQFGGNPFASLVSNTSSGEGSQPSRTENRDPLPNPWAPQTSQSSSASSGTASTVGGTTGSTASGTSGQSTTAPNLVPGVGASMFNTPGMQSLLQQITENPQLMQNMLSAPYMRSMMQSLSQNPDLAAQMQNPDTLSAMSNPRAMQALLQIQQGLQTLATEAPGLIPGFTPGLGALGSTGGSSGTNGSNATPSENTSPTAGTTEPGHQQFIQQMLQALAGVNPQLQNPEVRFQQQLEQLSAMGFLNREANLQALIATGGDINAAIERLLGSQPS

effect of a mutation on the interaction | Variant
disrupting interaction | A111G

Variants of: B1
Details: with ubql1_human UBQLN1, Q9UMX0
Sequence of ubql1_human UBQLN1, Q9UMX0 (Q9UMX0 whole entry): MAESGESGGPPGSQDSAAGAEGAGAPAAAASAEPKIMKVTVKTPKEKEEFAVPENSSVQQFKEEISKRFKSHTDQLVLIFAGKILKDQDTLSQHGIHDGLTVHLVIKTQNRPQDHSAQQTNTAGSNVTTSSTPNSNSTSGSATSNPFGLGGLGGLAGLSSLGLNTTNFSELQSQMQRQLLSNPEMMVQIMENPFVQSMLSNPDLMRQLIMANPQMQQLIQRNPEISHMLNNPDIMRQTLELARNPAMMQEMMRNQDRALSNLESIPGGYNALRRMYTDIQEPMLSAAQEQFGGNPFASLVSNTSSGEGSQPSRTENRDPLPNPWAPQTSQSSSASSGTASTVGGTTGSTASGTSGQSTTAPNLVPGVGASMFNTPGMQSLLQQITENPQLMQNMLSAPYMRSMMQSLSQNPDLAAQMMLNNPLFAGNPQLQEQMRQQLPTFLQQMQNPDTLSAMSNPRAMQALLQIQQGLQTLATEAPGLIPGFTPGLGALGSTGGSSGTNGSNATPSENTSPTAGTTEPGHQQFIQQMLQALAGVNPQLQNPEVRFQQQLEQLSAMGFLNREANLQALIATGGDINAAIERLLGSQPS

effect of a mutation on the interaction | Variant
disrupting interaction | A111G

Variants of: B1
Details: with hgs_human HGS
Remark: another data set of the same source

effect of a mutation on the interaction | Variant
disrupting interaction | G112S

Variants of: B1
Details: with stam2_human STAM2, O75886
Remark: another data set of the same source

effect of a mutation on the interaction | Variant
disrupting interaction | G112S

Variants of: B1
Details: with reep6_human REEP6, Q96HR9
Remark: another data set of the same source

effect of a mutation on the interaction | Variant
disrupting interaction | G112S

Variants of: B1
Details: with UBQLN1, Q9UMX0-2
Remark: another data set of the same source

effect of a mutation on the interaction | Variant
disrupting interaction | G112S

Variants of: B1
Details: with ubql1_human UBQLN1, Q9UMX0
Remark: another data set of the same source

effect of a mutation on the interaction | Variant
disrupting interaction | G112S
